This assay concerns immune cells. As to the kind of experiment: Inducing activity for interferon-γ in immune cells. In kind it is cell-based. As to conditions: IL-12 (positive control) with 40 ng/mL. The protocol:
The herbal extract (prepared by Example 1) was added in T lymphocytes and natural killer cells (NK92) separated from peripheral blood. After 24 hours, the upper-layered solution was collected and the quantity of interferon thereof was measured by ELISA. […] The dosage effect appears in both the T lymphocytes and natural killer cells (NK92). The quantity of interferon-α induced by PC-IL-12 (positive control) and the herbal extract was measured in the same manner. […] Additionally, the quantity of interferon-α produced by inducing T lymphocytes by the herbal extract with 250-1,000 μg/mL was obvious, as shown in FIGS. 2B and 2C.
The inducing activity for interferon-γ of the herbal extract (prepared by Example 3) was tested.

B1: IL-12: IL-12 (positive control) with 40 ng/mL (protein, UniProt P29459 23-219; P29460 23-328, looked up)
Interleukin-12 subunit alpha: RNLPVATPDPGMFPCLHHSQNLLRAVSNMLQKARQTLEFYPCTSEEIDHEDITKDKTSTVEACLPLELTKNESCLNSRETSFITNGSCLASRKTSFMMALCLSSIYEDLKMYQVEFKTMNAKLLMDPKRQIFLDQNMLAVIDELMQALNFNSETVPQKSSLEEPDFYKTKIKLCILLHAFRIRAVTIDRVMSYLNAS
Interleukin-12 subunit beta: IWELKKDVYVVELDWYPDAPGEMVVLTCDTPEEDGITWTLDQSSEVLGSGKTLTIQVKEFGDAGQYTCHKGGEVLSHSLLLLHKKEDGIWSTDILKDQKEPKNKTFLRCEAKNYSGRFTCWWLTTISTDLTFSVKSSRGSSDPQGVTCGAATLSAERVRGDNKEYEYSVECQEDSACPAAEESLPIEVMVDAVHKLKYENYTSSFFIRDIIKPDPPKNLQLKPLKNSRQVEVSWEYPDTWSTPHSYFSLTFCVQVQGKSKREKKDRVFTDKTSATVICRKNASISVRAQDRYYSSSWSEWASVPCS
Consider B1, for which the interferon-γ produced came to 50 ± 2.04 pg/mL.

These data come from patent US20090280200A1, “HERBAL EXTRACTS WHICH INDUCE IMMUNE CELLS TO PRODUCE INTERFERON AND ACTIVATE TOLL-LIKE RECEPTORS” (INDUSTRIAL TECHNOLOGY RESEARCH INSTITUTE, priority 2008, published 2009).
